{"source": "patent US20140161803A1", "about": "(IFOM Fondazione Istituo FIRC di Oncologia Molecolare, priority 2011, published 2014)", "target": "T1, human uPAR (Homo sapiens, UniProt Q03405)", "T1 construct": "the mature protein (Leu^1-Gly^283) in bold; expressed in transfected cells; host or cells: HEK293 Flp-In T-REx (293)", "T1 sequence (Q03405 23-305)": "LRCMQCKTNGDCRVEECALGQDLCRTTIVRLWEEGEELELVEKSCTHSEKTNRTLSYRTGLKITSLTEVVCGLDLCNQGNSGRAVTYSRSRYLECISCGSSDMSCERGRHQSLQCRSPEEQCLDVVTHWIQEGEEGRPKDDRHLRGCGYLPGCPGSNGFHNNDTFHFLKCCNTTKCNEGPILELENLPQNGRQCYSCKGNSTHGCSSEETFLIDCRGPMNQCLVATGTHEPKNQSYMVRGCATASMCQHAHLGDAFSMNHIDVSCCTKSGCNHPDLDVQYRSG", "assay": "Real-time cell analyzer (xCELLigence) adhesion of 293/uPAR cells to VN", "format": "cell-based", "conditions": "cell index one hour after addition, highest antibody concentration 300 nM", "protocol": "The electric impedance (termed cell index, CI) was recorded at regular intervals. […] The curves show the normalized cell index (NCI, Y-axis) as a function of time (X-axis). All cell indexes were normalized to the cell index measured immediately prior to antibody addition. To determine IC50 values (panel D), the NCI measured one hour after antibody addition were calculated in % of the NCI for untreated cells at the same time point (ΔNCI, Y-axis) and graphed in function of antibody concentration (X-axis).\n96-well E-Plates were coated with VN (5 μg/ml) or FN (10 μg/ml) over night at 4° C. Plates were washed with PBS, added 0.1 ml serum free medium (DMEM, 0.1% bovine serum albumin, 25 mM Hepes pH 7.0) and transferred to real-time cell analyzer instrument (xCELLigence SP, Roche Corp.). […] The plate was returned to the instrument and the cell index recorded every three minutes. […] After another 1-1.5 hours of measurements the plate was removed again and wells added (20 μl) of antibody diluted to yield the indicated final concentrations. The plate was returned to the instrument and measurements conducted every 3 minutes for 2 hours and then every 15 minutes for 18 hours.", "note": "Marks after values point to notes of the source that are not given here.", "data": [{"substance": "SMB: uPAR-binding N-terminal domain of VN, natural competitive antagonist of the uPAR/VN-interaction (DQESCKGRCTEGFNVDKKCQCDELCSYYQSCCTDYTAECKPQVT) [reference compound]", "values": [{"measurement": "% max inhibition (pro-uPA pre-treat.)", "setting": "pro-uPA pre-treated 293/uPAR cells on VN", "result": "100* %"}, {"measurement": "% max inhibition (veh. pre-treat.)", "setting": "vehicle pre-treated 293/uPAR cells on VN", "result": "100* %"}]}]}
